The values that follow come from PMC11094025.

The target in assay [1] is GST-VAPB-MSP (wild-type MSP-domain of VAPB fused to a GST-tag) (UniProt O95292). The assay can be described thus: peptide pull-down of purified protein, Coomassie gel quantification. The conditions noted are these: parent: est. 1.0; read off a plot.
Assay [2] has as its target VAPB (Vesicle-Associated-membrane Protein-associated protein B), endogenous (UniProt O95292). Kind of assay: peptide pull-down from total HeLa cell lysate, Western blot quantification. As to conditions: parent: est. 1.0; read off a plot.

For the substance “ELYS FFAT-2 peptide, non-phosphorylated S1314A; S1326A”, the ratio to parent in assay [1] came to 1.1; in assay [2] it was 0.5.
